Data: paper PMC11931385, “Structural and functional analysis of cancer-associated missense variants in the retinoblastoma protein pocket domain” (The Journal of Biological Chemistry, 2025)
Residue numbers refer to the chain shown, from its start. In names and notes the source's numbering stands. No end group written: not given here. TMR = tetramethyl rhodamine dye

B1: TMR-E2F1^TD, peptide of the E2F1 transactivation domain (peptide)
peptide: {TMR}-GEGIRDLFDCDFGDLTPLD
notes: also called E2F^TD; source: synthetic peptide, bought: GenScript
B2: TMR-E7^LxCxE, LxCxE peptide of the E7 oncoprotein from HPV (peptide)
peptide: DLYCYEQLN
modifications: also: TMR label, position not given here
notes: source: synthetic peptide, bought: GenScript

Tests used:
Experiment in all cases: fluorescence polarisation; 25 °C; unlabeled Rb^P titrated against 1.5 nM TMR-E2F1^TD or 7.5 nM TMR-E7^LxCxE; 25 mM Tris pH 8.0, 200 mM NaCl, 1 mM DTT, 0.1% Tween-20; 2 min incubation; quadratic fit; apparent Kd for the variants, Kd for WT
Conditions in all cases: both partners purified
Rb^P A488V = molecular target: T1, Rb^P A488V (human, UniProt P06400 380-788, A488V)
T1 construct: also called variant 14
T1 sequence (looked up): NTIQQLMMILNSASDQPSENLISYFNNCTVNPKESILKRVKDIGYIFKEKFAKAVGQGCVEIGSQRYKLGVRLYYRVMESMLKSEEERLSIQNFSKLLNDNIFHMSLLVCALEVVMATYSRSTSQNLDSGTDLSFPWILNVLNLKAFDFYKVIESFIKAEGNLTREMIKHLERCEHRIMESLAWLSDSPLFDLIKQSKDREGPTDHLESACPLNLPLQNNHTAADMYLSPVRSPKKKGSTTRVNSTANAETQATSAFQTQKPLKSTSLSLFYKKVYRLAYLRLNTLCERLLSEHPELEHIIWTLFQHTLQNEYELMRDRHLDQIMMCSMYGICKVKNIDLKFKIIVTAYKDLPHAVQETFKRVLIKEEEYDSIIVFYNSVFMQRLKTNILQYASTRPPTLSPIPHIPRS

Rb^P E440K = molecular target: T2, Rb^P E440K (human, UniProt P06400 380-788, E440K)
T2 construct: also called variant 1
T2 sequence (looked up): T1 sequence (looked up) with E61K, V109A

Rb^P E693A = molecular target: T3, Rb^P E693A (human, UniProt P06400 380-788, E693A)
T3 construct: also called variant 60
T3 sequence (looked up): T1 sequence (looked up) with V109A, E314A

Rb^P H699P = molecular target: T4, Rb^P H699P (human, UniProt P06400 380-788, H699P)
T4 construct: also called variant 63
T4 sequence (looked up): T1 sequence (looked up) with V109A, H320P

Rb^P S751Y = molecular target: T5, Rb^P S751Y (human, UniProt P06400 380-788, S751Y)
T5 construct: also called variant 72
T5 sequence (looked up): T1 sequence (looked up) with V109A, S372Y

Binder	Kd (Rb^P A488V)	Kd (Rb^P E440K)	Kd (Rb^P E693A)	Kd (Rb^P H699P)	Kd (Rb^P S751Y)
B1	53 nM	12 nM	42 nM	35 nM	33 nM
B2	9 nM	5 nM	7 nM	6 nM	127 nM
